Drawing on PMC4735607, “Reversal of axonal growth defects in an extraocular fibrosis model by engineering the kinesin–microtubule interface” (Nature Communications, 2016), this text covers Kd for two molecules.

Common to all, as to conditions: both partners purified
The target of assay [1] is T1, WT microtubules of recombinant human TUBA1B (K40R, treated as WT) and TUBB3 tubulin (human, UniProt P68363-1 1-451; Q13509-1 1-450, K40R).
T1 construct: beta3-tubulin TUBB3, Homo sapiens, NP_006077; Polymer of alpha/beta heterodimers, taxol-stabilised; Each tag is joined through a GGSGG linker; also called WT MT; WT MTs; source: HighFive insect cells (baculovirus), purified (DEAE Sepharose, TALON, anti-FLAG resin), polymerized with taxol
T1 sequence (P68363 whole entry K40R, chain 1 of 2): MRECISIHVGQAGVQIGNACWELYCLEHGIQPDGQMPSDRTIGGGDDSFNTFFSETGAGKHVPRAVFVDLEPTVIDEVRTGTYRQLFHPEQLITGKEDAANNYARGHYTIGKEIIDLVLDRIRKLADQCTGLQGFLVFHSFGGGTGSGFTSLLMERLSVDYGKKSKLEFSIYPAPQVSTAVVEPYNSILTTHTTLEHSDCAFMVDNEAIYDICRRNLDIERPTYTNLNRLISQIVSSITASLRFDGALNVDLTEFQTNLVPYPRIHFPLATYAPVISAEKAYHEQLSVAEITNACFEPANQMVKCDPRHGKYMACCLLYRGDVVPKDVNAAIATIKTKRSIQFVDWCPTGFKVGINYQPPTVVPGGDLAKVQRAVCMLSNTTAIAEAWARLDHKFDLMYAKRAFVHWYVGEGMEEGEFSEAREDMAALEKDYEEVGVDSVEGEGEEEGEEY
T1 sequence (Q13509 whole entry, chain 2 of 2): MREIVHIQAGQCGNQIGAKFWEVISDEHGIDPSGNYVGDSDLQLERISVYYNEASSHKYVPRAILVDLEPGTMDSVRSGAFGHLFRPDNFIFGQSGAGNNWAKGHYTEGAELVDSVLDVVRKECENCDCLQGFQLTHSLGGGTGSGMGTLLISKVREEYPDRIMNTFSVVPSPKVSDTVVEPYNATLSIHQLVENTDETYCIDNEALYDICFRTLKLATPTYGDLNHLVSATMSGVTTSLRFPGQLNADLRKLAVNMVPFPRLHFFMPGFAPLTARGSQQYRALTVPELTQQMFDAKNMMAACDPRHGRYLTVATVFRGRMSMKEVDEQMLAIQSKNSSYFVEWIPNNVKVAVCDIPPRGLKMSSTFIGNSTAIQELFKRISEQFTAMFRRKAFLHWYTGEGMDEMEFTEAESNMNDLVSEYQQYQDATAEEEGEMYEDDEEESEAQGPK
Briefly: co-sedimentation; AMPPNP state: 0.1 µM BG-549-labelled HK349 with varying concentrations of MTs; x2 MA buffer, 1 mg/ml casein, 40 µM taxol, 1 mM AMPPNP and 1 U/ml apyrase; fraction of HK349 in the MT pellet against total MT concentration fitted to a hyperbola.

The target in assay [2] is T2, beta-R262A microtubules of recombinant human TUBA1B (K40R) and TUBB3 R262A tubulin (human, UniProt P68363-1 1-451; Q13509-1 1-450, K40R | R262A).
T2 construct: beta3-tubulin TUBB3, Homo sapiens, NP_006077, with R262A; Polymer of alpha/beta heterodimers, taxol-stabilised; Each tag is joined through a GGSGG linker; also called β-R262A; R262A MT; source: HighFive insect cells (baculovirus), purified (DEAE Sepharose, TALON, anti-FLAG resin), polymerized with taxol
T2 sequence (P68363 whole entry K40R, chain 1 of 2): as the sequence (P68363 whole entry K40R, chain 1 of 2) above
T2 sequence (Q13509 whole entry R262A, chain 2 of 2): as the sequence (Q13509 whole entry, chain 2 of 2) above, with R262A counted along it
Described as above.

Assay [3] deals with T1, WT microtubules of recombinant human …. The assay can be described thus: co-sedimentation; ADP state: 0.1 µM BG-549-labelled HK349 with varying concentrations of MTs; x2 MA buffer, 1 mg/ml casein, 40 µM taxol, 1 mM ADP and 1 U/ml hexokinase; fraction of HK349 in the MT pellet against total MT concentration fitted to a hyperbola.
In assay [4] the target is T2, beta-R262A microtubules of recombinant …. Described as above.
Assay [5] concerns the target T1, WT microtubules of recombinant human …. The assay can be described thus: co-sedimentation; nucleotide-free state: 0.1 µM BG-549-labelled HK349 with varying concentrations of MTs; x2 MA buffer, 1 mg/ml casein, 40 µM taxol, 1 U/ml apyrase; fraction of HK349 in the MT pellet against total MT concentration fitted to a hyperbola.
Assay [6] addresses T2, beta-R262A microtubules of recombinant …. The assay is described as above.

Where a chain is given by its changes, count along the chain named. In names and notes the source's numbering stands.

B1: WT KIF5B, single-headed (monomeric) construct HK349 (K349-SNAP-His) (domain or fragment, human, UniProt P33176 1-349, looked up)
chain: MADLAECNIKVMCRFRPLNESEVNRGDKYIAKFQGEDTVVIASKPYAFDRVFQSSTSQEQVYNDCAKKIVKDVLEGYNGTIFAYGQTSSGKTHTMEGKLHDPEGMGIIPRIVQDIFNYIYSMDENLEFHIKVSYFEIYLDKIRDLLDVSKTNLSVHEDKNRVPYVKGCTERFVCSPDEVMDTIDEGKSNRHVAVTNMNEHSSRSHSIFLINVKQENTQTEQKLSGKLYLVDLAGSEKVSKTGAEGAVLDEAKNINKSLSALGNVISALAEGSTYVPYRDSKMTRILQDSLGGNCRTTIVICCSPSSYNESETKSTLLFGQRAKTIKNTVCVNVELTAEQWKKKYEKEKE
modifications: fluorescent dye BG-549 (SNAP-surface 549) on the SNAP tag
notes: kinesin heavy chain KIF5B, human, residues 1-349; also called minimal motor; not shown: SNAP tag, C-terminal, kept
The Kd is the free concentration of one partner at which half of the binding sites on the other are occupied at equilibrium, for simple one-to-one binding. Regarding B1, the Kd came out at 29 nM in assay [1]; 2500 nM in assay [2]; 6500 nM in assay [3]; 36000 nM in assay [4]; 12 nM in assay [5]; 860 nM in assay [6].

B2: D279R KIF5B, single-headed (monomeric) construct HK349 (domain or fragment, human, UniProt P33176 1-349, looked up)
chain: B1 chain with D279R
modifications: fluorescent dye BG-549 (SNAP-surface 549) on the SNAP tag
notes: kinesin heavy chain KIF5B, human, residues 1-349, with D279R in the L12 loop; also called HK349 D279R; not shown: SNAP tag, C-terminal, kept
In the case of B2, the Kd worked out at 10 nM in assay [1]; 50 nM in assay [2]; 12000 nM in assay [3]; 14000 nM in assay [4]; 12 nM in assay [5]; 120 nM in assay [6].
